In the supplement of paper PMC10126150:
± gives the standard deviation of the averaged measurements.

System: ATP
Assay: switch fluorescence ratio, 500 uM ATP over buffer (Cy3 cluster intensity, sum of 5 cycles each) (fold (ratio)); higher = stronger signal-on switching upon ATP binding; sequences stand for … in TCGTCGGCAGCGTCAGATGTGTATAAGAGACAGTTTTTTTTTTTTTTTTTTTTTTTTT…TC
Conditions: aptamer strand: ATP DNA aptamer (quencher-CACCTGGGGGAGTATTGCGGAGGAAGG + anchor), 100 nM annealed; ATP concentration: 500 uM
Procedure, shortened: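 For every switch-domain sequence, the fluorescence ratio is the mean of per-cluster values, each being summed target-cycle Cy3 intensity over summed buffer-cycle Cy3 intensity. Clusters outside 100-1000 RFU were excluded. On a modified Illumina MiSeq flow-cell, the Cy3-labelled switching-strand clusters were annealed to 100 nM quencher-labelled ATP aptamer, imaged in selection buffer and then after 15 min with 500 uM ATP at 22 °C. Five such cycles were run, with NaOH stripping and re-annealing between them.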
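Further: ATP exposure 15 min at 22 °C before imaging.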

Row | Sequence | switch fluorescence ratio
1 | GTGTACGGGG | 0.971 ± 0.026
2 | GTGTACGGGT | 0.991 ± 0.012
3 | GTGTAGGGGA | 1.0019 ± 0.00055
4 | GTGTATAGCA | 1.03 ± 0.014
5 | GTGTATATCG | 0.991 ± 0.012
6 | GTGTATCGTC | 0.9819 ± 0.0014
7 | GTGTATGAGA | 1.002 ± 0.0083
8 | GTGTCAATTT | 1.13 ± 0.17
9 | GTGTCATAGC | 0.975 ± 0.012
10 | GTGTCATTTA | 0.99 ± 0.035
11 | GTGTCCATTG | 0.998 ± 0.074
12 | GTGTCGGGGA | 1.01 ± 0.071
13 | GTGTCGGGGT | 1.002 ± 0.004
14 | GTGTCTAAAT | 0.989 ± 0.011
15 | GTGTCTACAT | 1.02 ± 0.014
16 | GTGTCTTGGA | 0.9893 ± 0.0052
17 | GTGTGAAAGC | 1.011 ± 0.0035
18 | GTGTGACACG | 1.04 ± 0.064
19 | GTGTGACCGT | 1.02 ± 0.024
20 | GTGTGCTAGT | 0.975 ± 0.02
21 | GTGTGGTGTT | 0.986 ± 0.016
22 | GTGTGTCAGT | 0.964 ± 0.013
23 | GTGTGTGGGA | 1 ± 0.026
24 | GTGTGTGGGC | 1.04 ± 0.061
25 | GTGTGTGGTC | 1 ± 0.021
26 | GTGTGTTGTC | 1.01 ± 0.02

Row | Sequence | switch fluorescence ratio
27 | GTGTTAAAGG | 0.992 ± 0.013
28 | GTGTTAATGA | 0.967 ± 0.019
29 | GTGTTAATGG | 0.998 ± 0.022
30 | GTGTTAGATC | 0.98 ± 0.017
31 | GTGTTAGGCG | 0.981 ± 0.018
32 | GTGTTATAGG | 1 ± 0.026
33 | GTGTTATATT | 1.004 ± 0.0089
34 | GTGTTCAGGG | 1.02 ± 0.021
35 | GTGTTCATGG | 1 ± 0.012
36 | GTGTTCGGCG | 1.07 ± 0.066
37 | GTGTTCTTGC | 0.9845 ± 0.0043
38 | GTGTTGGCTT | 0.995 ± 0.033
39 | GTGTTGTCGG | 1.01 ± 0.026
40 | GTGTTGTTCG | 0.995 ± 0.015
41 | GTGTTTAGTG | 0.9787 ± 0.0029
42 | GTGTTTCCGG | 1.01 ± 0.045
43 | GTGTTTGCTA | 1.02 ± 0.032
44 | GTGTTTTATT | 1.01 ± 0.036
45 | GTGTTTTCCT | 1.04 ± 0.017
46 | GTGTTTTCGG | 0.985 ± 0.016
47 | GTGTTTTGGC | 1.02 ± 0.029
48 | GTGTTTTTTG | 0.968 ± 0.019
49 | GTGTTTTTTT | 0.991 ± 0.023
50 | GTTAAAAACA | 1.03 ± 0.052
51 | GTTAAAGGGT | 1.01 ± 0.0075
52 | GTTAACCCAT | 1.0083 ± 4.1e-05

Row | Sequence | switch fluorescence ratio
53 | GTTAACGATA | 1.03 ± 0.038
54 | GTTAACGTTT | 0.982 ± 0.036
55 | GTTAACTCCA | 1.02 ± 0.022
56 | GTTAACTTTG | 1.0027 ± 0.00076
57 | GTTAAGTAGC | 0.971 ± 0.025
58 | GTTAAGTTTT | 0.985 ± 0.021
59 | GTTAATATAA | 0.9971 ± 0.003
60 | GTTAATGTAA | 0.9934 ± 0.0059
61 | GTTAATTGAT | 1 ± 0.027
62 | GTTAATTTAG | 0.987 ± 0.01
63 | GTTACAGTGG | 1 ± 0.061
64 | GTTACGAAAA | 1 ± 0.056
65 | GTTACGGGAC | 1.24 ± 0.015
66 | GTTACGGGGG | 1.02 ± 0.031
67 | GTTACTGGTG | 1.05 ± 0.027
68 | GTTACTGTGC | 1.08 ± 0.025
69 | GTTAGAAAAA | 1.03 ± 0.023
70 | GTTAGAAAAT | 1.01 ± 0.03
71 | GTTAGACTAT | 0.99057 ± 0.00092
72 | GTTAGAGAGC | 1.06 ± 0.0068
73 | GTTAGAGGGT | 1.01 ± 0.021
74 | GTTAGAGTCA | 1.01 ± 0.013
75 | GTTAGATGTT | 1 ± 0.011
76 | GTTAGCATTG | 1 ± 0.029
77 | GTTAGCCGCT | 1.03 ± 0.014
78 | GTTAGGATGG | 1.01 ± 0.044

Row | Sequence | switch fluorescence ratio
79 | GTTAGGGGAA | 1.02 ± 0.031
80 | GTTAGGGGGG | 0.979 ± 0.036
81 | GTTAGGGGTT | 0.996 ± 0.024
82 | GTTAGGTTGG | 0.9811 ± 0.007
83 | GTTAGTAGTG | 0.952 ± 0.022
84 | GTTAGTATAT | 1 ± 0.018
85 | GTTAGTCAAA | 0.991 ± 0.01
86 | GTTATAGCGT | 0.963 ± 0.026
87 | GTTATATGGA | 0.996 ± 0.018
88 | GTTATCAGTT | 0.99 ± 0.014
89 | GTTATCATTT | 0.989 ± 0.011
90 | GTTATCTAGC | 0.994 ± 0.017
91 | GTTATGGGGT | 1.01 ± 0.04
92 | GTTATTACGA | 1.005 ± 0.0041
93 | GTTATTATAG | 0.992 ± 0.005
94 | GTTATTATGC | 0.952 ± 0.035
95 | GTTATTGGTA | 1.01 ± 0.018
96 | GTTATTTACG | 1.02 ± 0.033
97 | GTTATTTATT | 0.995 ± 0.047
98 | GTTATTTGGG | 0.979 ± 0.035
99 | GTTATTTTAC | 1.01 ± 0.031
100 | GTTATTTTGT | 0.99 ± 0.019
101 | GTTCAAGATA | 1 ± 0.036
102 | GTTCAGATTG | 1.03 ± 0.0048
103 | GTTCAGTTGC | 0.996 ± 0.033
104 | GTTCAGTTTG | 1.03 ± 0.031

Row | Sequence | switch fluorescence ratio
105 | GTTCATAAAG | 0.98 ± 0.028
106 | GTTCCAGTTT | 1.039 ± 0.006
107 | GTTCCGCCGA | 1.23 ± 0.026
108 | GTTCCGGTTT | 1.01 ± 0.034
109 | GTTCCTATGA | 1.01 ± 0.043
110 | GTTCCTCATT | 1.45 ± 0.61
111 | GTTCGAAAAA | 0.961 ± 0.09
112 | GTTCGAAAGG | 1.022 ± 0.0095
113 | GTTCGAGAGC | 0.995 ± 0.057
114 | GTTCGGGATT | 0.981 ± 0.023
115 | GTTCGGGGGT | 0.986 ± 0.025
116 | GTTCTAGTGT | 0.972 ± 0.04
117 | GTTCTATATT | 0.986 ± 0.062
118 | GTTCTATCAG | 0.995 ± 0.09
119 | GTTCTCCTGA | 1.01 ± 0.014
120 | GTTCTGGGGT | 1 ± 0.016
121 | GTTCTTGATG | 0.967 ± 0.015
122 | GTTCTTGGAG | 0.9991 ± 0.0031
123 | GTTCTTGTAA | 1.017 ± 0.0088
124 | GTTGAAAATT | 0.99 ± 0.021
125 | GTTGAACGGT | 1.1 ± 0.053
126 | GTTGAAGAAA | 0.998 ± 0.072
127 | GTTGAATCTG | 1.26 ± 0.36
128 | GTTGACCGGC | 0.996 ± 0.011
129 | GTTGAGCGGG | 0.9786 ± 0.0069
130 | GTTGAGTAGG | 0.994 ± 0.012

Row | Sequence | switch fluorescence ratio
131 | GTTGATAAGT | 1.01 ± 0.0084
132 | GTTGATATAG | 1 ± 0.021
133 | GTTGATGCCG | 1.001 ± 0.0012
134 | GTTGATGGTG | 1 ± 0.039
135 | GTTGCAGGGT | 1.004 ± 0.0065
136 | GTTGCCGAGT | 1.024 ± 0.0048
137 | GTTGCGATGA | 1.02 ± 0.013
138 | GTTGCGGGGG | 0.9937 ± 0.0015
139 | GTTGCGGGGT | 1.02 ± 0.029
140 | GTTGCGTCGA | 0.997 ± 0.016
141 | GTTGCGTCTA | 1.04 ± 0.033
142 | GTTGCTACCT | 1.05 ± 0.038
143 | GTTGCTGATT | 1.02 ± 0.04
144 | GTTGCTGGGG | 0.998 ± 0.011
145 | GTTGCTTTGG | 1.04 ± 0.017
146 | GTTGGAAGAT | 1.03 ± 0.015
147 | GTTGGAGCCT | 0.995 ± 0.065
148 | GTTGGCAACA | 1.04 ± 0.056
149 | GTTGGGAAAA | 1.01 ± 0.034
150 | GTTGGGGAAT | 1.04 ± 0.093
151 | GTTGGGGAGC | 1.005 ± 0.0066
152 | GTTGGGGAGT | 0.9776 ± 0.0062
153 | GTTGGGGGAG | 0.978 ± 0.02
